± gives the uncertainty stated by the source.
Experiment: amyloid nucleation score (Sup35N fusion, yeast selection) (log enrichment); library NNK2; higher = more nucleation; inactive = no reads after selection
Outline: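 Yeast lacking psi expressed peptides of 20 random codons fused to Sup35N, received 100 μM copper sulfate for 24 hours, and were then grown for 7 days at 30°C on medium lacking adenine and uracil. Illumina sequencing of input and output plasmid inserts provided the reads. Nucleation scores are DiMSum log enrichments of output over input, centred on the mode of non-aggregating sequences. Any sequence with under 100 input reads was excluded.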

| Substance | amyloid nucleation score |
| --- | --- |
| VFWNIAFNSYMQRSCYIVVF | 2.12 ± 0.14 |
| SFYWYRCVDIADSTSKYDGF | inactive |
| VSVNSGSVKLFVIPACCSYD | 6.099 ± 0.055 |
| PGVRISVPVLLAWNCYC | 8.558 ± 0.071 |
| AVCVENLCPWV | 1.82 ± 0.11 |
| CNVSCFVRVVFKWIIS | 2.33 ± 0.24 |
| SGIAWSLVNVGLGYHYMQGG | 0.178 ± 0.39 |
| TFNVPKMESVRPPG | 0.796 ± 0.52 |
| TTALGRFMFDLCNDDWYSLV | inactive |
| DVACNTRKPCS | -0.908 ± 0.78 |
| VRLGRWLFTFSANTDTLANM | -0.729 ± 1.1 |
| MRTKGIRQADVFCESYRFNT | -0.029 ± 0.65 |
| YFLSGRVSEGSAITIRELSP | 2.34 ± 0.091 |
| MFDFCPIMTLF | -0.771 ± 1.1 |
| TSSLYISMMVLL | 4.07 ± 0.074 |
| QETFDFCM | -1.65 ± 0.64 |
| MEGITRFSPPKNSEYIVLAG | -0.613 ± 0.44 |
| YVQTSKCGS | 7.1 ± 0.055 |
| YRRLCWPWFRKLFEVYRDN | -0.554 ± 0.63 |
| YVCPIHLSDYEVTLECKSHG | 2.17 ± 0.18 |
| PGLPEERHNCKTYCHRTSRP | 0.016 ± 0.34 |
| RFMHGTTCHTKYHRHLSTET | 0.766 ± 0.23 |
| SRKSFLLCILLCSITLPLAR | -1.09 ± 0.44 |
| TIIRDFSWLHLGFPRACIIT | -0.976 ± 0.64 |
| RSSSVVEARGESST | 7.106 ± 0.041 |
| LELMEYPL | -0.153 ± 0.45 |

| Substance | amyloid nucleation score |
| --- | --- |
| PYGFRVFTLWMLKRDSS | 0.92 ± 0.57 |
| YHSFCWANMIHRINSIVRLL | inactive |
| VGIEEVIH | -0.249 ± 0.23 |
| WHMLHRVDKAISFSLSCCGR | 7.81 ± 0.084 |
| CRFIRFHYLGYNLGSHHIYI | -0.902 ± 0.78 |
| YQINCLGSYDNLQCMIGGHV | 5.965 ± 0.037 |
| NIIACMYKLEDSGRQFSMLE | 5.214 ± 0.046 |
| LTFRAVSWTWCYPPELSSCS | 0.775 ± 0.49 |
| HRFSGVVIYNINRSSTIGN | 7.328 ± 0.04 |
| WNGGQWGAWPLCSNVCAMRS | 7.7 ± 0.062 |
| PRCYLVLKFYSQCLFSVHTF | inactive |
| RYAYLFGPGRCWMFLSVFPY | 4.2 ± 0.069 |
| YMTPVLDSHSFADVSAIRCV | 0.212 ± 0.39 |
| TMLSLSDISFQLKKILL | 2.56 ± 0.15 |
| FRCHYFNWNDFALAVSFSKE | -0.33 ± 0.38 |
| PPHCTGHLV | 0.183 ± 1 |
| NKGSPCISCFVENDLYYLKY | -0.707 ± 0.42 |
| HLTVFVDLSVRLRQMYRRYS | 5.56 ± 0.069 |
| NNWYQTGSVAEASIEPSSMQ | 1.6 ± 0.41 |
| FVIVFVRRSNTFLAPQKVWG | 1.6 ± 0.14 |
| TTENNCLVREKVVYGWMWSS | 0.149 ± 0.25 |
| LIHLNNAMIEHCMFEVRSFG | -0.016 ± 0.26 |
| FPCAMYTEWHVAVTVSICYG | -0.36 ± 0.76 |
| LIQVAFQLYATVQVTVKTDV | 2.09 ± 0.26 |
| GLWLGWNLYVNKFV | 0.385 ± 0.33 |
| LRVTGNVGLSFGAKGLARPD | 3.33 ± 0.12 |

| Substance | amyloid nucleation score |
| --- | --- |
| TLVLTEFDKGIDIVL | -0.565 ± 0.26 |
| IERPVRVHRYKT | inactive |
| RESARRKAYLLSKNGSNWLH | -0.249 ± 0.5 |
| RMETTKPIRSSGTSITAPNG | 1.53 ± 0.53 |
| FNGSYASILKTSNRDTFDAL | 0.61 ± 0.15 |
| EILLR | 0.269 ± 0.8 |
| VGLFGWRGKEGF | -0.033 ± 0.76 |
| LHSYWH | 0.121 ± 0.2 |
| QVLVWQHMGRSTVLMLY | -0.58 ± 0.55 |
| NRDTM | -1.13 ± 0.37 |
| HLCHLLRSEHCRNGGSEKSR | 1.61 ± 0.29 |
| FYASLHNSFFSVLWTDMTFS | -0.487 ± 1.1 |
| WFSRFSFCRKHYLTVNNWGL | -0.566 ± 0.49 |
| GFYGLTVSSTEYKWSMIQIR | 1.88 ± 0.077 |
| RNHRRSWMPSFRTKLNGGWF | 3.58 ± 0.14 |
| NIYADNARVWLPRGDRGLEW | 0.799 ± 0.74 |
| VFIVL | 1.65 ± 0.41 |
| NSNFCCVGLCTNFAWFVCLM | 8.44 ± 0.064 |
| GQYLVSKFGIEHTA | 0.307 ± 0.17 |
| SSRRGNDGWRCGPSCGGCTG | 3.65 ± 0.082 |
| DIIRMGFRPFWQGVCVRLSY | -0.669 ± 0.63 |
| ELPGPHSGVTPPACEWSTHP | 0.422 ± 0.24 |
| SACVWVNICTSASNGDPG | 7.445 ± 0.039 |
| YNGLEVAYLF | 5.43 ± 0.062 |
| TILWEVVGAL | 0.091 ± 0.17 |
| KSYMARMWYMVRLMLTCLDY | 0.741 ± 0.47 |

| Substance | amyloid nucleation score |
| --- | --- |
| YRCYTSGFLFFHGSCLNCKS | 0.227 ± 1.1 |
| INSAGNLPQERTVLGYFHCS | -1.44 ± 0.62 |
| NYSDWRVSTEIRSMGRYRPH | 0.069 ± 0.65 |
| CGQFAYYGACDVGIFFRS | 4.74 ± 0.037 |
| RIGMPMMSAYTMGLVTDRFT | 1.06 ± 0.4 |
| KKEVINWYFLTYAGLEKLCL | -0.715 ± 0.48 |
| WASIQVDRSLGCNIFWLLQ | 3.73 ± 0.11 |
| LDSWRPN | -0.393 ± 0.39 |
| LHSNCRV | 0.343 ± 0.8 |
| FWRTP | -0.539 ± 0.5 |
| TLGPL | inactive |
| SRYLSVIYYHRSNTWLRDRE | inactive |
| MHLCADPAGFWDWN | -0.446 ± 1 |
| CCSVCFRRLLYLLSRR | 6.9 ± 0.068 |
| TKCVFIVCRLYVFDMVGLYV | -0.573 ± 0.78 |
| GEISIGMNLTGEKTSSSGFK | -0.679 ± 1.1 |
| SEVLNVFA | -1.14 ± 0.34 |
| HDYYMSVSLMGWY | -1.02 ± 0.34 |
| FKRRCVDYNFSVVILLH | -2.03 ± 0.76 |
| NVRTYCGFKSSNIRRWVSRH | inactive |
| QILNGSAY | -0.899 ± 0.3 |
| SRVGFFS | 0.072 ± 1.1 |
| WFCVVVMFGRRVDNLDKLVF | -1.33 ± 0.54 |
| DITLFYSDTSCRFSVPCSVD | 0.598 ± 0.46 |
| YQNVVCRDIQIGFWNLADSI | 5.824 ± 0.056 |
| SMYLCDK | -0.621 ± 0.48 |

| Substance | amyloid nucleation score |
| --- | --- |
| CGARRGCDSWTSSTAGKSVG | 1.16 ± 0.61 |
| QKLIRWCVKLG | 4.24 ± 0.062 |
| DWFVSGTSDRVVGNSAGGGV | 0.589 ± 0.66 |
| CSLVAPGTYYYGEWFPGQMS | -0.66 ± 0.29 |
| SYVGVSNGRVVWVRVMANSK | inactive |
| CASRC | 4.11 ± 0.06 |
| MFVHLGGTWMQR | 5.135 ± 0.046 |
| RIFVIVAGNYYFLAGFGYLA | -1.74 ± 0.64 |
| HYLNIRQDPY | 2.4 ± 0.21 |
| SFRFMFEVLSVVTYSTRGCA | 2.92 ± 0.067 |
| RSVPYSLCSMQLCTFHFEHS | 8.384 ± 0.028 |
| FVLSDQK | 0.347 ± 0.21 |
| KRSMKESWVYNLCNRVYCKG | 0.467 ± 0.8 |
| VDVRMDEWVDRTAFAWMMRV | 0.875 ± 0.43 |
| GGNLGRPEKALSRRCCVDYL | inactive |
| NKRATALCNLHF | inactive |
| SVLLRDMGILYVMRNYYWPL | -0.033 ± 0.76 |
| AMLLNILVPYVYSKTGRGPV | 1.88 ± 0.33 |
| DGSMFGPDVCFYIVSLILPF | 5.03 ± 0.07 |
| ICQCPVNTANTQLGVGTRLK | 0.114 ± 0.5 |
| LVSMAIECHLLYLLE | 0.931 ± 0.47 |
| SGYVLNAELNAASLLMCGIG | 0.252 ± 0.74 |
| FRVVRFVQTGSTFSIARFIK | -0.83 ± 0.39 |

Reference: the supplement of paper PMC12042874
